# Experimental data published in article PMC8139424.
# Target: S2 fragment of the S protein (SARS-CoV-2)
# Assay: SEC
substance,measurement,value
S2 fragment of the S protein (domain or fragment),stoichiometry N,3
